Laboratory results taken from publication doi:10.1101/2020.08.27.270991 (bioRxiv, 2020).
Substitutions are numbered along the chain they refer to. Names may count otherwise. Values belong to the binder of their own block, whether it stands above or below them.

Legend:
[1] = target: full-length Thermus thermophilus MgtE (Thermus thermophilus, UniProt Q5SMG8); assay: ITC
cryo-EM structure = target: the molecule itself; assay: cryo-EM structure
cross-linking = target: the molecule itself; assay: cross-linking

- Kd [1]: 253 ± 71.1 nM
B1: Fab antibody fragment Fab705 (Fab, V domains shown)
VH: EVKLQESGVELVKPGASVKISCKASGYSFTGYNMNWVKQSHGKSLEWIGNISPYYGTSIYNQNFKGKATLTVDRSSSTAYMQLNSLTSEDSAVYYCARGESFSNYEGYYAMDYWGQGTSVIVSS
VL: DVLMTQTPLSLPVSLGDQASISCRSSQSLVHSDGNTYLHWYLQKPGQSPKLLIYKVSNRFSGVPDRFSGSGSGTDFTLKISRVEAEDLGVYFCSQSTHVPWTFGGGTKLEIK

B2: full-length Thermus thermophilus MgtE (natural protein, UniProt Q5SMG8 1-450, looked up)
chain: MEEKLAVSLQEALQEGDTRALREVLEEIHPQDLLALWDELKGEHRYVVLTLLPKAKAAEVLSHLSPEEQAEYLKTLPPWRLREILEELSLDDLADALQAVRKEDPAYFQRLKDLLDPRTRAEVEALARYEEDEAGGLMTPEYVAVREGMTVEEVLRFLRRAAPDAETIYYIYVVDEKGRLKGVLSLRDLIVADPRTRVAEIMNPKVVYVRTDTDQEEVARLMADYDFTVLPVVDEEGRLVGIVTVDDVLDVLEAEATEDIHKLGAVDVPDLVYSEAGPVALWLARVRWLVILILTGMVTSSILQGFESVLEAVTALAFYVPVLLGTGGNTGNQSATLIIRALATRDLDLRDWRRVFLKEMGVGLLLGLTLSFLLVGKVYWDGHPLLLPVVGVSLVLIVFFANLVGAMLPFLLRRLGVDPALVSNPLVATLSDVTGLLIYLSVARLLLEAV
- stoichiometry N (cryo-EM structure): 2

B3: MgtE double cysteine mutant T336C/L421C (natural protein, Thermus thermophilus, UniProt Q5SMG8 1-450, looked up)
chain: B2 chain with T336C, L421C
- binding result (cross-linking): binds
